Patent US20190241662A1 (ADAGENE, published 2019)
Changes are numbered by the printed parent chain.

T1: full-length human CTLA4 expressed on cells (human, UniProt P16410 36-223)
T1 sequence (looked up): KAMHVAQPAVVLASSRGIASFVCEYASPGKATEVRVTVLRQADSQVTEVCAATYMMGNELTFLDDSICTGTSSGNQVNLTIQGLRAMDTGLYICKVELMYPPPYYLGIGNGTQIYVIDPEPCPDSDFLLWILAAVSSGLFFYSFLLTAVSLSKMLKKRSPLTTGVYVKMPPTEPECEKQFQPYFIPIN

T2: human Tim3 on HEK293F cells (human, UniProt Q8TDQ0 22-301)
T2 construct: whole, on cells
T2 sequence (looked up): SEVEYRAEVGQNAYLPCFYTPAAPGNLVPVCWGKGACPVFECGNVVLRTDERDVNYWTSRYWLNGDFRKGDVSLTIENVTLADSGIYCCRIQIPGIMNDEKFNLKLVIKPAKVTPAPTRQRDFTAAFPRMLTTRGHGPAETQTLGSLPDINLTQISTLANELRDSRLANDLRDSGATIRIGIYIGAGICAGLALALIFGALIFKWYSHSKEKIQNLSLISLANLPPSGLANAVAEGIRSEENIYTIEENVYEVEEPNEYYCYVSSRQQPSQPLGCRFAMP

T3: human B7H3 on HEK293F cells (human, UniProt Q5ZPR3 29-534)
T3 construct: whole, on cells
T3 sequence (looked up): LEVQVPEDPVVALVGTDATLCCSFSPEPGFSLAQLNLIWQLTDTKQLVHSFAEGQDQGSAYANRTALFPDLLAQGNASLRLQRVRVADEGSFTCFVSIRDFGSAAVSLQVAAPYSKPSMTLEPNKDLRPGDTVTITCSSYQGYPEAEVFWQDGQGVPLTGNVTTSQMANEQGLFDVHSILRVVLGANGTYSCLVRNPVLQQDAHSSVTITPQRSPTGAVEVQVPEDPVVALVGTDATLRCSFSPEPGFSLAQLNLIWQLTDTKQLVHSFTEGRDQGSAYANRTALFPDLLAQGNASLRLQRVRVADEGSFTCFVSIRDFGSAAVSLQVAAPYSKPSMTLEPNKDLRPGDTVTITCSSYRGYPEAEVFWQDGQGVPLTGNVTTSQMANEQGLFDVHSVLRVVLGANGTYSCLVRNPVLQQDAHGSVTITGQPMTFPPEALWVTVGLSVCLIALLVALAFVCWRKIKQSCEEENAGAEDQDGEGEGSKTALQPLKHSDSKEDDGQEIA

T4: biotinylated rat CTLA4 protein fused with human FC (rat, UniProt Q62859 36-161, Biotinylated; sites not stated)
T4 sequence: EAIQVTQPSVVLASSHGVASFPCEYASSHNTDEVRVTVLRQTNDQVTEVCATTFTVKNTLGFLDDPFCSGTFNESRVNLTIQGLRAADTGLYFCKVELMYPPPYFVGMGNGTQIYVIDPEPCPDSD

T5: recombinant human CTLA4 fused with human Fc and His tag (human, UniProt P16410 36-162, limits assumed)
T5 construct: Coated in the CD80 ELISA, biotinylated and in solution in the CD86 ELISA; also called biotinylated human CTLA4 fused with human FC and His tag
T5 sequence (looked up): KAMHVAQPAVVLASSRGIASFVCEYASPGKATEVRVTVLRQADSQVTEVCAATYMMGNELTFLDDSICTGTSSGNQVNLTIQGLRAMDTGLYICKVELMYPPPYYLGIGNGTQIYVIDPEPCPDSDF

B1: TY21687 (antibody, V domains shown)
VH: EVQLVESGGGLVQPGGSLRLSCAASGFTFSGYAIHWVRQAPGKGLEWIGIISPSGGGTKYAQKFQGRVTISRDNSKNTLYLQLNSLRAEDTAVYYCARHPFAYWGQGTLVTVSS
VL: DIQLTQSPSSLSASVGDRVTITCRASQSVDFYGISFLDWYQQKPGKAPKLLIYDASNRATGIPSRFSGSGSGTDFTLTISSLQPEDFATYYCQQYVSSPPEYTFGQGTKVEIK
notes: human IgG1 (hIgG1) from Fab hit B15700
B2: TY21585 (antibody, V domains shown)
VH: EVQLVESGGGLVQPGGSLRLSCAASGFTFSDYAIHWVRQAPGKGLEWIGIISPSSGSTNYAQKFQGRVTISRDNSKNTLYLQLNSLRAEDTAVYYCARDIHSGSSGYYYGFDVWGQGTLVTVSS
VL: B1 VL with Q27E, Y32F, D38A, Q94H, V96T, E101V
notes: human IgG1 (hIgG1) from Fab hit B15709
B3: TY21691 (antibody, V domains shown)
VH: EVQLVESGGGLVQPGGSLRLSCAASGFTFSDYAIHWVRQAPGKGLEWIGIISPSGGSTKYAQKFQGRVTISRDNSKNTLYLQLNSLRAEDTAVYYCARLGYGYFDVWGQGTLVTVSS
VL: DIQLTQSPSSLSASVGDRVTITCRASQSVDFYGISFLHWYQQKPGKAPKLLIYDASSLESGVPSRFSGSGSGTDFTLTISSLQPEDFATYYCVQALQLPLTFGQGTKVEIK
notes: human IgG1 (hIgG1) from Fab hit B15736
B4: TY21591 (antibody, V domains shown)
VH: EVQLVESGGGLVQPGGSLRLSCAASGFSLSTGGVAVSWIRQAPGKGLEWIGEIYHSGSTYYSPSLKSRVTISRDNSKNTLYLQLNSLRAEDTAVYYCARRIATATYFDYWGQGTLVTVSS
VL: DIQLTQSPSSLSASVGDRVTITCRASQTVFSRYLAWYQQKPGKAPKLLIYDASNRATGIPSRFSGSGSGTDFTLTISSLQPEDFATYYCQQSYYWPPWTFGQGTKVEIK
notes: human IgG1 (hIgG1) from Fab hit B15756

How the values were obtained:
[1] = biological target: T1, full-length human CTLA4 expressed on …; experiment: cell-based or functional assay
[2] = biological target: T1, full-length human CTLA4 expressed on …; experiment: cell-based or functional assay; remark: listed apart in the source
[3] = biological target: T2, human Tim3 on HEK293F cells; experiment: flow cytometry, transfected HEK293F cells [Cont.]
Description: (§1) Antibody selectivity was next examined. Human CTLA4, PD1, LAG3, Tim3, B7H3, CD95, TNFR1, OX40, CD40, PD-L1, BLTA, VISTA, PDL2, ICOS and B7H4 were transiently overexpressed on the surface of HEK293F cells. Transfected cells were washed in pre-chilled 1×PBSA buffer (1.76 mM KH2PO4, 10.14 mM Na2HPO4.12H2O, 2.68 mM KCl, 136.89 mM NaCl and 1% BSA), then incubated with 100 nM test antibodies for 1 hour on ice. Cells were washed once with staining buffer, and Alexa Fluor® 647 conjugated mouse anti-human FC antibodies were added and incubated for 30 minutes on ice, protected from light. Samples were washed once with staining buffer prior to analysis by flow cytometry.

[4] = biological target: T3, human B7H3 on HEK293F cells; experiment: flow cytometry, transfected HEK293F cells [Cont.]
Description: as §1

[5] = biological target: T4, biotinylated rat CTLA4 protein fused …; experiment: BLI (ForteBio), biotinylated rat CTLA4-Fc on SA sensor, IgG 15 ug/mL
Text: The association and dissociation curves were fitted to a 1:1 Langmuir binding model using ForteBio Data Analysis 7.1 (Pall, USA) according to the manufacturer's guidelines.

[6] = biological target: T5, recombinant human CTLA4 fused with …; experiment: competition ELISA: plate-bound human CD86-Fc, biotinylated human CTLA4-Fc-His in solution
Description: Plates were blocked with PBS supplemented with 2% (w/v) skim milk at 37° C. for 1 hour. […] Plates were washed four times, and 100 μL HRP-neutravidin (1:1000) were added to each well and incubated at 37° C. for 1 hr. Plates were washed as previously described, and 50 μL TMB substrate solution was added and incubated at room temperature for 5 minutes before the reaction was stopped by 50 μL sulfate acid (2M).

[7] = biological target: T6, human CD40 on HEK293F cells (human, UniProt P25942 21-277); experiment: flow cytometry, transfected HEK293F cells [Cont.]
T6 construct: whole, on cells
Description: as §1

[8] = biological target: T1, full-length human CTLA4 expressed on …; experiment: flow cytometry blocking: HEK293F cells with human CTLA4, 100 nM antibody, then 100 nM CD86-Fc-Bio (blocked ligand); PBSA panel: Mean 10678, 12.2%
Description: Antibodies were also tested for their ability to block binding of CTLA4 to its cognate ligands CD80 and CD86 by flow cytometry. The plasmid encoding full-length human CTLA4 was transiently expressed in HEK293F cells. Cells were washed with staining buffer (PBSA buffer including 1.76 mM KH₂PO₄, 10.14 mM Na₂HPO₄.12H₂O, 2.68 mM KCl, 136.89 mM NaCl and 1% BSA), and resuspended in staining buffer containing 100 nM test antibodies. […] Cells were washed once, and analyzed by CytoFlex flow cytometry.

[9] = biological target: T1, full-length human CTLA4 expressed on …; experiment: flow cytometry blocking: HEK293F cells with human CTLA4, 100 nM antibody, then 100 nM CD80-Fc-Bio (blocked ligand); PBSA panel: Mean 157692, 26.3%

T6 sequence (P25942 21-277): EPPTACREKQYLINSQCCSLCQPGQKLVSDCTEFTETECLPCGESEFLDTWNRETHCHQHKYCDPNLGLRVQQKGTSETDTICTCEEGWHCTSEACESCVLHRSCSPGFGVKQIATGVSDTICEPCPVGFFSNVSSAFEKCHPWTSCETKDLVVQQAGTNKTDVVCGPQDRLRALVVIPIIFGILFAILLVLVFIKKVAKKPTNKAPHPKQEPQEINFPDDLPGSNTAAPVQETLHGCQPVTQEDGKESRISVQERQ

| Binder | EC50 for TCR/CD28 pathway activation (luciferase reporter, CTLA4 blockade bioassay) [1] | EC50 for ADCC reporter signaling (Jurkat/NFAT-Luc/CD16 with HEK293F/hCTLA4 cells) [2] | binding result [3] | binding result [4] | Kd [5] | IC50 (read off the curve) [6] | binding result [7] | % of cells in upper right quadrant (CD86-positive) in the presence of the antibody [8] | Mean of the CD86 binding signal in the presence of the antibody [8] | % of cells in upper right quadrant (CD80-positive) in the presence of the antibody [9] | Mean of the CD80 binding signal in the presence of the antibody [9] |
| --- | --- | --- | --- | --- | --- | --- | --- | --- | --- | --- | --- |
| B1 | 5.01 µg/mL | 9.5 µg/mL | no binding (tested: 100 nM) | no binding (tested: 100 nM) | 0.78 nM | ~10 nM |  |  |  |  |  |
| B2 |  |  | no binding (tested: 100 nM) | no binding (tested: 100 nM) |  |  | no binding (tested: 100 nM) | 3.43% | 5140 | 22.5% | 83700 |
| B3 | 2.64 µg/mL | > 10 µg/mL |  |  | 0.58 nM | ~20 nM |  |  |  |  |  |
| B4 |  |  |  |  |  |  | no binding (tested: 100 nM) | 0.61% | 4960 | 24.9% | 68500 |
